Experimental data: the supplement of paper PMC10065799, “High-throughput profiling of sequence recognition by tyrosine kinases and SH2 domains using bacterial peptide display” (eLife, 2023)

Tests used:
AncSZ = assay: phosphorylation enrichment, bacterial display (enrichment ratio); higher = better substrate or ligand; peptides without Tyr show the background
EPHB1 = EPHB1 (UniProt P54762); assay: as above
EPHB2 = EPHB2 (UniProt P29323); assay: as above
FGFR1 = FGFR1 (UniProt P11362); assay: as above
FGFR1, sequence (P11362 whole entry, looked up): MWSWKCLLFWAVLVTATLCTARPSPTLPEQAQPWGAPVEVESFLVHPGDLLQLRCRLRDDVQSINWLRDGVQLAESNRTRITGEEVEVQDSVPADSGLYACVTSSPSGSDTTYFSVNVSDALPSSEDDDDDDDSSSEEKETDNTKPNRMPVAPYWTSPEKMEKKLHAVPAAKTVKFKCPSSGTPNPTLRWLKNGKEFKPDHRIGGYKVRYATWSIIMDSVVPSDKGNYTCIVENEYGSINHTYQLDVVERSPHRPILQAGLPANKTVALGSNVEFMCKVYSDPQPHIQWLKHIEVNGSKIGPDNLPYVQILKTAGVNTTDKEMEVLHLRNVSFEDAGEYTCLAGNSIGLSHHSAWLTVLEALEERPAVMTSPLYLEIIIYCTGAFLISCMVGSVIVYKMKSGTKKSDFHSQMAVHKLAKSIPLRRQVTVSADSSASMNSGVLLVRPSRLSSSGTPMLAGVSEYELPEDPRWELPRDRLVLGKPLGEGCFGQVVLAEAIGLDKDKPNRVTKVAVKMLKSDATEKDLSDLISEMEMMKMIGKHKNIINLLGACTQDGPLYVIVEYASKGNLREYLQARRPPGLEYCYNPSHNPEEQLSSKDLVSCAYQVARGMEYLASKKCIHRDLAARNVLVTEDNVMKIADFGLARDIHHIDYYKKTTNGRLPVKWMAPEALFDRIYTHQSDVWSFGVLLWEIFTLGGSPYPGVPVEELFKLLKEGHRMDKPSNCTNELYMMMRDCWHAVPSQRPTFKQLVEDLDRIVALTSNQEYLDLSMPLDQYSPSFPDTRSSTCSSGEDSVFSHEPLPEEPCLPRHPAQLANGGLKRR

FGFR3 = FGFR3 (UniProt P22607); assay: as above
FGFR3, sequence (P22607 whole entry, looked up): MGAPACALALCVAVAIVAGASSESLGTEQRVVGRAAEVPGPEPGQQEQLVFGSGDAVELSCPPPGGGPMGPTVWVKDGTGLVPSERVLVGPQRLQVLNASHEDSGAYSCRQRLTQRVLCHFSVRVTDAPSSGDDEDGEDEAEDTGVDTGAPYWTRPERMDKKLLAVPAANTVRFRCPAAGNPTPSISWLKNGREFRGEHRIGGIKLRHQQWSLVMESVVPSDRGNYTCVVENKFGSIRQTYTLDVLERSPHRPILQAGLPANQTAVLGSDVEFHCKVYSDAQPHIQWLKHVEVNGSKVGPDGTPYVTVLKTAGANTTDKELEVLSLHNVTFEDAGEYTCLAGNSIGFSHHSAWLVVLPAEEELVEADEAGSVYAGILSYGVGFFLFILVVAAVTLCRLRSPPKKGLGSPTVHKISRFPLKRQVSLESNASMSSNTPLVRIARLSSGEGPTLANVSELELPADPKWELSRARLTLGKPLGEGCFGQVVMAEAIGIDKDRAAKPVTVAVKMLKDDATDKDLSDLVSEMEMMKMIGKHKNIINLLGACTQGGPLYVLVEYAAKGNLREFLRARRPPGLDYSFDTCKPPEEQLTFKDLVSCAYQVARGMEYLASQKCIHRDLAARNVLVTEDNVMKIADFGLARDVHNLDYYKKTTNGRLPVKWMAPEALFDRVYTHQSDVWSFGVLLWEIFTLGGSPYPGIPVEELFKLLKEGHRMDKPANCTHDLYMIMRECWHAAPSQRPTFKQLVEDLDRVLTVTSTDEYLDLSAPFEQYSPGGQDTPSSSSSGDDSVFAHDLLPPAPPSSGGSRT

Fer (mouse) = assay: as above
Fes = Fes (UniProt P07332); assay: as above
Fyn = Fyn (UniProt P06241); assay: as above
Fyn, sequence (P06241 whole entry, looked up): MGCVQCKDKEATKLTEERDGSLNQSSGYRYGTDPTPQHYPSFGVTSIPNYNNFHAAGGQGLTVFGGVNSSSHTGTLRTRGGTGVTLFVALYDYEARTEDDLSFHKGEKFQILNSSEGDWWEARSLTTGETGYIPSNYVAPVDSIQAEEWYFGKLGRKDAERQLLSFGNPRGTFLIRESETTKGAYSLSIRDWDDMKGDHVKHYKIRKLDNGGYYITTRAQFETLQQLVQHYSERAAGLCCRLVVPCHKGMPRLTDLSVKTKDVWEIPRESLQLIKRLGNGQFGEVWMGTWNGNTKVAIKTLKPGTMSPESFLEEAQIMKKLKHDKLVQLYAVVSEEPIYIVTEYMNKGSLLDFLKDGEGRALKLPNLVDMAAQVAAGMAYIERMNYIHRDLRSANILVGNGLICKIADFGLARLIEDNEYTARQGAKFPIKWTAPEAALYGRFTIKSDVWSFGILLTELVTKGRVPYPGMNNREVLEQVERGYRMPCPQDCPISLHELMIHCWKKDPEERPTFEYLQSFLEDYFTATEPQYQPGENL

Hck = Hck (UniProt P08631); assay: as above
Hck, sequence (P08631 whole entry, looked up): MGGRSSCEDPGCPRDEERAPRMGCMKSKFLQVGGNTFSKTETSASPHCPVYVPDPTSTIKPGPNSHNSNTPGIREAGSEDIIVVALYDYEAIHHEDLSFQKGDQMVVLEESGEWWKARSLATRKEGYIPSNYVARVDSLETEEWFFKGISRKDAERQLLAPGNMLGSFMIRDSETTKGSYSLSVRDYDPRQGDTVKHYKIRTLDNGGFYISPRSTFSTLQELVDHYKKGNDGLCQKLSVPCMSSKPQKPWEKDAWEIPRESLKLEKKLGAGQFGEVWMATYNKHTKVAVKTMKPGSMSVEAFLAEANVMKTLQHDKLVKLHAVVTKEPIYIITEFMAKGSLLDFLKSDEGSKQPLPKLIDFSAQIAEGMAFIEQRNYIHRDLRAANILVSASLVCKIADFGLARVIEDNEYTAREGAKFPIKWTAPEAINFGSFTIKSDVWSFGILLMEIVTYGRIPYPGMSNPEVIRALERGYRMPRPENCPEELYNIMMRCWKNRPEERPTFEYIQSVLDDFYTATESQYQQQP

Jak2 = Jak2 (UniProt O60674); assay: as above
MERTK = MERTK (UniProt Q12866); assay: as above
MERTK, sequence (Q12866 whole entry, looked up): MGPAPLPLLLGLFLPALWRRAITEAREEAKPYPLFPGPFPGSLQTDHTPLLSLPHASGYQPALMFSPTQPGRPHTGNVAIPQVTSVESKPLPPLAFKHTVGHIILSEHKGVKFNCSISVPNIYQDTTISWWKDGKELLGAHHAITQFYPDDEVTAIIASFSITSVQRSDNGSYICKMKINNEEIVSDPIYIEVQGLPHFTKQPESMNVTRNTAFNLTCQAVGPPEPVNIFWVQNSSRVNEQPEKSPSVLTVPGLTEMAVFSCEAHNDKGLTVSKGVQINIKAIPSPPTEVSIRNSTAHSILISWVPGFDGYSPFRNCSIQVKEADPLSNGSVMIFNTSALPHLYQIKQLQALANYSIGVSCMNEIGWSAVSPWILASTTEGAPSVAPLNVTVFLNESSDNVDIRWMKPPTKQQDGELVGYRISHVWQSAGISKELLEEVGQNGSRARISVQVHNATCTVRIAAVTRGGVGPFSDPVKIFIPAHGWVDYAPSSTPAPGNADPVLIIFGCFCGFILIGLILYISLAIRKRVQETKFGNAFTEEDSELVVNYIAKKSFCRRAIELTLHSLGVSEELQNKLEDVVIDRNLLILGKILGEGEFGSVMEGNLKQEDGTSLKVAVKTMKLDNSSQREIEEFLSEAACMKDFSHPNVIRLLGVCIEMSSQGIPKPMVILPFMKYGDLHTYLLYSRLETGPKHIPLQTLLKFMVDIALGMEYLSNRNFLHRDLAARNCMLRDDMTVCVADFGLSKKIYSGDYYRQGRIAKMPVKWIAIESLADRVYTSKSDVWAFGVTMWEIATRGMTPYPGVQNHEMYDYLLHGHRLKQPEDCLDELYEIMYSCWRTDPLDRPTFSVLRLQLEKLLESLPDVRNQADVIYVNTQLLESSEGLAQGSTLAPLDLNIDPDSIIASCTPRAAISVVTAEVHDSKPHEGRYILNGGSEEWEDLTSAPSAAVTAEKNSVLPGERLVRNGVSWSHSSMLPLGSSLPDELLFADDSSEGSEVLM

c-Abl (mouse) = assay: as above
c-Src = assay: as above
Grb2 SH2 = Grb2 SH2 (UniProt P62993); assay: SH2 binding enrichment of the phosphorylated peptide, bacterial display (enrichment ratio); higher = better substrate or ligand; peptides without Tyr show the background
Grb2 SH2, sequence (P62993 whole entry, looked up): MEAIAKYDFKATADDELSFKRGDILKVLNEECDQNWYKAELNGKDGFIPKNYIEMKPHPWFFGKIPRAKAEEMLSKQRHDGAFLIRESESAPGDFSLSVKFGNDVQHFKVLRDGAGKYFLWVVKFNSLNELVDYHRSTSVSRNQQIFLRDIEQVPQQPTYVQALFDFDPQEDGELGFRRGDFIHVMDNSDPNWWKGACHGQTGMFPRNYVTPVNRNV

SHP2-C SH2 = assay: as above
c-Src SH2 = assay: as above
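Wherever SH2 binding enrichment of the phosphorylated peptide, bacterial display is given: peptide library displayed on the E. coli surface as eCPX fusions, selected cells deep-sequenced, score is each peptide's frequency after selection divided by its frequency in the input.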
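Wherever phosphorylation enrichment, bacterial display is given: 11-residue human phosphosite peptides and single-mutation variants displayed on the E. coli surface, counted by deep sequencing, each peptide's frequency after selection divided by its frequency in the unselected input library; frequency after pTyr selection over input frequency; kinase dosed for 20-30% of maximal phosphorylation in three min.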

EPHB1, sequence (P54762 whole entry, looked up): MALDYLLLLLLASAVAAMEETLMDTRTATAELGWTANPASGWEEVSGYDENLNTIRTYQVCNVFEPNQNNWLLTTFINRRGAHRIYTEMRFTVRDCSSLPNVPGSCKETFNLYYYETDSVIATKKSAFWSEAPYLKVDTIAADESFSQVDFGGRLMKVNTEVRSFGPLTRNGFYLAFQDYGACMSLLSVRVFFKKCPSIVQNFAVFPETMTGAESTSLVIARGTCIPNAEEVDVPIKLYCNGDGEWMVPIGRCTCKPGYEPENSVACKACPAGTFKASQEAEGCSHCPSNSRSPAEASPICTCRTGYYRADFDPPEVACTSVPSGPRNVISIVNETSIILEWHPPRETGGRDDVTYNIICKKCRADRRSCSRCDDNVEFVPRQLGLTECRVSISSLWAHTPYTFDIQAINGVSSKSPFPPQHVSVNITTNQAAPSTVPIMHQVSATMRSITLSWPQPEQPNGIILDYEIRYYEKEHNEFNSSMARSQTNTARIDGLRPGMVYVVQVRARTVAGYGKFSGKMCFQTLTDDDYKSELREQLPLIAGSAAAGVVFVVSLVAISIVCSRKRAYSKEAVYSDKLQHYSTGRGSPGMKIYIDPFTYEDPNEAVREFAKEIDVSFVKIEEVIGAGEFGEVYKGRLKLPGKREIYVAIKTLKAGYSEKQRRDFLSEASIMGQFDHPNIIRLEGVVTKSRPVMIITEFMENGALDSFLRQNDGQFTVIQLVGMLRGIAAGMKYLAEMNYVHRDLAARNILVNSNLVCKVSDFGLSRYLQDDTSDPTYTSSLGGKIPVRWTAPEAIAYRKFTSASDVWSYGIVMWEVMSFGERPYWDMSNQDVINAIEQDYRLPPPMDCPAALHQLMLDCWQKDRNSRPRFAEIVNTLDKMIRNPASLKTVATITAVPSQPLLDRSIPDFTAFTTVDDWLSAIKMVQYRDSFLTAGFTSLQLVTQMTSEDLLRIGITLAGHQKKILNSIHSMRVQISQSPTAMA

Sequence | phosphorylation enrichment (AncSZ) | phosphorylation enrichment (EPHB1) | phosphorylation enrichment (EPHB2) | phosphorylation enrichment (FGFR1) | phosphorylation enrichment (FGFR3) | phosphorylation enrichment (Fer (mouse)) | phosphorylation enrichment (Fes) | phosphorylation enrichment (Fyn) | phosphorylation enrichment (Hck) | phosphorylation enrichment (Jak2) | phosphorylation enrichment (MERTK) | phosphorylation enrichment (c-Abl (mouse)) | phosphorylation enrichment (c-Src) | SH2 binding enrichment (Grb2 SH2) | SH2 binding enrichment (SHP2-C SH2) | SH2 binding enrichment (c-Src SH2)
RLASVYTKRCS [CPT2_Y508_P504L] | 0.917 | 0.706 | 0.501 | 0.4 | 0.695 | 0.414 | 0.889 | 0.528 | 0.578 | 0.739 | 0.316 | 0.643 | 0.557 | 0.868 | 0.864 | 0.611
RLLVVYPWNQR [HBB_Y36_T39N] | 1.1 | 0.391 | 0.752 | 0.557 | 0.62 | 0.595 | 1.4 | 0.603 | 0.431 | 1.04 | 0.636 | 0.735 | 0.351 | 2.12 | 1.84 | 1.54
RLQEDYDHSFF [ESD_Y258_G257D_YF] | 1.74 | 1.21 | 0.912 | 0.842 | 1.2 | 0.919 | 1.55 | 0.792 | 0.869 | 1.65 | 0.649 | 1.19 | 1.07 | 0.901 | 0.914 | 0.339
RMETEYGPSVT [MXRA5_Y2717] | 0.937 | 0.779 | 0.929 | 0.91 | 0.718 | 0.408 | 1.01 | 0.823 | 0.752 | 0.985 | 0.54 | 0.92 | 0.787 | 1.07 | 0.622 | 0.584
RMQLPYDSTWE [PDGFRB_Y589_P584R] | 1.23 | 0.76 | 0.704 | 0.779 | 0.963 | 0.434 | 1.33 | 0.851 | 0.764 | 1.17 | 0.447 | 0.913 | 0.996 | 0.445 | 0.747 | 0.91
RNIQQHNSFVS [PRKAR1A_Y373_Y373H] | 0.601 | 0.604 | 0.343 | 0.42 | 0.448 | 0.379 | 0.451 | 0.443 | 0.378 | 0.461 | 0.329 | 0.438 | 0.367 | 0.806 | 0.694 | 0.557
RPGSGYTNIMQ [PKLR_Y564_R569Q] | 0.775 | 0.61 | 0.484 | 0.763 | 0.517 | 0.466 | 0.834 | 0.469 | 0.548 | 0.463 | 0.524 | 0.549 | 0.597 | 2.13 | 1.76 | 2.99
RQNNSYTCYTA [SLC20A2_Y386_R382Q] | 1.11 | 0.597 | 0.76 | 0.557 | 0.659 | 0.528 | 0.897 | 0.58 | 0.694 | 0.787 | 0.476 | 0.582 | 0.915 | 0.739 | 0.644 | 0.664
RQQEVYLLFKQ [RARRES1_Y159_D158V_YF] | 1.57 | 0.915 | 0.589 | 0.789 | 1.19 | 0.576 | 1.48 | 0.892 | 0.66 | 1.37 | 0.478 | 1.64 | 0.788 | 1.34 | 1.05 | 0.853
RRAKGYPINLF [ITGB2_Y125_D128N_YF] | 0.49 | 0.576 | 0.613 | 0.448 | 0.465 | 0.454 | 0.571 | 0.435 | 0.448 | 0.603 | 0.476 | 0.537 | 0.554 | 0.868 | 0.397 | 0.572
RRIFSYRGHLW [VHL_Y112_H110Y_YF] | 0.834 | 0.47 | 0.541 | 0.731 | 0.619 | 0.536 | 0.897 | 0.763 | 0.712 | 0.587 | 0.6 | 1.1 | 0.905 | 1.07 | 0.495 | 0.498
RRNVFYFSFLL [PTEN_Y177_Y174N_YF] | 1.81 | 0.998 | 1.03 | 0.743 | 0.709 | 0.852 | 1.62 | 0.984 | 0.923 | 1.69 | 0.937 | 2.83 | 1.29 | 1.34 | 0.691 | 0.893
RSRSPYSSRHS [CDK13_Y415] | 0.596 | 0.422 | 0.614 | 0.701 | 0.489 | 0.439 | 0.634 | 0.557 | 0.548 | 0.472 | 0.625 | 0.637 | 0.446 | 0.793 | 0.543 | 0.433
RSSGGYEPRGR [FUS_Y239] | 0.652 | 0.323 | 0.452 | 0.555 | 0.403 | 0.418 | 0.569 | 0.412 | 0.379 | 0.683 | 0.425 | 0.384 | 0.358 | 0.674 | 0.521 | 0.488
RSSNTYTLMDV [ALCAM_Y298_T301M] | 1.01 | 0.633 | 0.868 | 1.26 | 1.17 | 1.42 | 0.793 | 1.55 | 0.676 | 0.309 | 4.15 | 0.614 | 1.58 | 0.78 | 0.7 | 6.21
RTLIRYANLGN [BEST1_Y131] | 1.03 | 0.918 | 0.666 | 0.621 | 0.654 | 0.737 | 1.14 | 0.973 | 0.481 | 0.793 | 0.706 | 1.04 | 0.685 | 3.12 | 1.12 | 0.802
